According to US20250361296A1 (BIOCYTOGEN PHARMACEUTICALS BEIJING, published 2025):

T1: human SIGLEC15 on CHO-S-hSIGLEC15 cells (human, UniProt Q6ZMC9 20-328)
T1 sequence: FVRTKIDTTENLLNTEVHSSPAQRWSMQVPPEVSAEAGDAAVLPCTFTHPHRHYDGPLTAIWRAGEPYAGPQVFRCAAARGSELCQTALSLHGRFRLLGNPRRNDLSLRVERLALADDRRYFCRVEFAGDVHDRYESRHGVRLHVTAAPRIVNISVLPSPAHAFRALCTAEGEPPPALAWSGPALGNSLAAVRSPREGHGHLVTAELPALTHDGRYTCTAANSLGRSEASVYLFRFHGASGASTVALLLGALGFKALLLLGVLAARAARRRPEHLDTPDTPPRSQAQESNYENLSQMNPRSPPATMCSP

T2: His-tagged human SIGLEC15 protein (hSIGLEC15-His, Novoprotein Scientific Inc., Cat #: CW37) (human, UniProt Q6ZMC9 20-263)
T2 construct: Bought protein; not shown: His tag
T2 sequence: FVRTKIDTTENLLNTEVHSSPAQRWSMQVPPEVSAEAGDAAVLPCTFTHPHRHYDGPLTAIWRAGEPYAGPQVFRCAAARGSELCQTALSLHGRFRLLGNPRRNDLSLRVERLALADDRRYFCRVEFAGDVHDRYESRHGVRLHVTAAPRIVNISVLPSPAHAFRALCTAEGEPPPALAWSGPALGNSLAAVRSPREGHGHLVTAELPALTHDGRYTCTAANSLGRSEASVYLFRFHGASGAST

T3: His-tagged mouse SIGLEC15 protein (mSIGLEC15-His, ACROBiosystems Inc., Cat #: SG5-M52H7) (mouse)
T3 construct: Bought protein; not shown: His tag
T3 chain: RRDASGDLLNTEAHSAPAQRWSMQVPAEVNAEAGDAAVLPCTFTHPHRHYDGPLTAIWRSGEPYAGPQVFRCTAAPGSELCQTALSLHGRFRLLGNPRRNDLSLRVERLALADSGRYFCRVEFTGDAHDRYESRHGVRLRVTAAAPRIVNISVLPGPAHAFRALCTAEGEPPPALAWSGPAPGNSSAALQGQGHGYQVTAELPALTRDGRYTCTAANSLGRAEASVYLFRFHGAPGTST


How the values were obtained:
[1] = target: T1, human SIGLEC15 on CHO-S-hSIGLEC15 cells; test: flow cytometry (MFI) on CHO-S-hSIGLEC15 cells; antibody sample: 0 d
Protocol: (§1) In the activity detection experiment, 30 μL of CHO-S-hSIGLEC15 cells were added to the culture plate, and the antibody to be tested was added in a gradient dilution ([…]), and incubated at 4° C. for 30 min. The plate was washed with PBS, and diluted secondary antibody Anti-hIgG-Fc-Alex Flour 647 (RL1-H) (1:2000) was added, incubated at 4° C. for 30 min. The plate was washed once with PBS and the cells were resuspended for flow cytometry detection. MFI value was derived by FlowJo 7.6.1 analysis to calculate EC50.

[2] = target: T1, human SIGLEC15 on CHO-S-hSIGLEC15 cells; test: flow cytometry (MFI) on CHO-S-hSIGLEC15 cells; antibody sample: 4° C. 7 d
Protocol: as §1

[3] = target: T1, human SIGLEC15 on CHO-S-hSIGLEC15 cells; test: flow cytometry (MFI) on CHO-S-hSIGLEC15 cells; antibody sample: 25° C. 7 d
Protocol: as §1

[4] = target: T1, human SIGLEC15 on CHO-S-hSIGLEC15 cells; test: flow cytometry (MFI) on CHO-S-hSIGLEC15 cells; antibody sample: 40° C. 7 d
Protocol: as §1

[5] = target: T1, human SIGLEC15 on CHO-S-hSIGLEC15 cells; test: flow cytometry (MFI) on CHO-S-hSIGLEC15 cells; antibody sample: pH 3.5 0 h
Protocol: as §1

[6] = target: T1, human SIGLEC15 on CHO-S-hSIGLEC15 cells; test: flow cytometry (MFI) on CHO-S-hSIGLEC15 cells; antibody sample: pH 3.5 6 h
Protocol: as §1

[7] = target: T2, His-tagged human SIGLEC15 protein …; test: SPR (Biacore 8K), antibody captured on Protein A chip, His-tagged SIGLEC15 as analyte
Protocol: (§2) Purified anti-SIGLEC15 antibodies was captured on the Protein A chip (Series S Sensor Chip Protein A) for the detection. […] The flow rate was 30 μL/min, the binding and dissociation time were set to 180 s and 600 s, respectively. The chip was regenerated after the last injection of each titration with a glycine solution (pH 2.0) at 30 μL/min for 30 seconds.
(§3) Kinetic association rates (kon) and dissociation rates (koff) were obtained simultaneously by fitting the data globally to a 1:1 Langmuir binding model (Karlsson, R. Roos, H. Fagerstam, L. Petersson, B., 1994. Methods Enzymology 6. 99-110) using Biacore™ 8K Evaluation Software 3.0. Affinities were deduced from the quotient of the kinetic rate constants (KD=koff/kon). As a person of ordinary skill in the art would understand, the same method with appropriate adjustments for parameters (e.g., antibody concentration) was performed for each tested antibody.

[8] = target: T3, His-tagged mouse SIGLEC15 protein …; test: as above
Protocol: as §2, §3

EC50 [1]	EC50 [2]	EC50 [3]	EC50 [4]	EC50 [5]	EC50 [6]	Kd [7]	koff [7]	kon [7]	Kd [8]	koff [8]	kon [8]	Binder
0.129 µg/mL	0.122 µg/mL	0.106 µg/mL	0.111 µg/mL	0.148 µg/mL	0.221 µg/mL	0.164 pM	6.85e-07 s⁻¹	4.19e+06 M⁻¹ s⁻¹	1970 pM	0.00126 s⁻¹	639000 M⁻¹ s⁻¹	anti-SIGLEC15 antibody 23F4 (antibody, human IgG1, V domains shown) VH: QVQLQQWGAGLLKPSETLSLTCAVYGGSFSGYFWSWIRQPPGKGLEWIGEINHSGSTNYNPSLKSRVTLSVDTSKNQFSLKLSSVTAADTAVYYCAREGDSSSWGNWFDPWGQGTLVTVSS VL: EIVLTQSPGTLSLSPGERATLSCRASQSVSSSYLAWYQQKPGQAPRFLIYGASSRATGIPDRFSGSGSGTDFTLTISRLEPEDFAVYYCQQFGNSPLTFGGGTKVEIK
1.17 µg/mL	0.85 µg/mL	0.65 µg/mL	0.6 µg/mL	0.44 µg/mL	0.11 µg/mL	0.0846 pM	2.23e-07 s⁻¹	2.63e+06 M⁻¹ s⁻¹	2170 pM	0.00253 s⁻¹	1.17e+06 M⁻¹ s⁻¹	anti-SIGLEC15 antibody 10C9 (antibody, human IgG1, V domains shown) VH: QVQLVQSGAEVKKPGATVKVSCKASGYTFTNYGFSWVRQAPGQGLEWMGWINTYNDNTNYAQKFQGRVTMTTDTSTSTAYMELRSLRSDDTAVYYCARDGLWFGELPHYFDYWGQGTLVTVSS VL: DIQLTQSPLSSPVTLGQPASISCRSSQSLVNSDGETFLSWLQQRPGQPPRLLIYKISNRFSGVPDRFSGSGAGTDFTLKISRVEAEDVGVYYCMQATQFPHTFGQGTKLEIK
